Positions count from the first letter of the chain named.
B1: t878470 (protein)
chain: MGNTTSIAGRDCLISALGGNSALAVFPNELLWTADVHEYNLNLPVTPAAITYPETAQQIAAVVKCASDYDYKVQARSGGHSFGNYGLGGADGAVVVDMKHFTQFSMDDETYEAVIGPGTTLNDVDIELYNNGKRAMAHGVCPTIKTGGHFTIGGLGPTARQWGLALDHVEEVEVVLANSSIVRASNTQNQDVFFAVKGAAANFGIVTEFKVRTEPAPGLAVQYSYTFNLGSTAEKAQFVKDWQSFISAKNLTRQFYNNMVIFDGDIILEGLFFGSKEQYDALGLEDHFAPKNPGNILVLTDWLGMVGHALEDTILKLVGNTPTWFYAKSLGFRQDTLIPSAGIDEFFEYIANHTAGTPAWFVTLSLEGGAINDVAEDATAYAHRDVLFWVQLFMVNPVGPISDTTYEFTDGLYDVLARAVPESVGHAYLGCPDPRMEDAQQKYWRTNLPRLQELKEELDPKNTFHHPQGVMPA
modifications: expressed in S. cerevisiae strain
B2: t865744 (protein)
chain: B1 chain with Q57A, A61G, V260F
B3: t865743 (protein)
chain: B1 chain with Q57A, A61G, V260M
B4: t865717 (protein)
chain: B1 chain with Q57A, A61G, E112V, N122S
B5: t878465 (protein)
chain: B1 chain with Q57A, A61G, N202S, P472A
modifications: expressed in S. cerevisiae strain
B6: t865746 (protein)
chain: B1 chain with Q57A, A61G, V386A
modifications: expressed in S. cerevisiae strain
B7: t865737 (protein)
chain: B1 chain with Q57A, A61G, V62I
B8: t865714 (protein)
chain: B1 chain with Q57A, A61G, M394T
B9: t865694 (protein)
chain: B1 chain with Q57E, A61G, I126A
B10: t865729 (protein)
chain: B1 chain with Q57E, A61G, N131S
B11: t865726 (protein)
chain: B1 chain with T33D, Q57A, A61G, N257S

What follows are molecules tested on CBCA, THCA, and CBDA production (assay: In vivo TS activity assay, Example 2 protein engineering of A. niger CBCAS, cultures fed olivetolic acid). Conditions: secondary screen.
Format: cell-based, S. cerevisiae
Description: (§1) An assay to detect TS activity was conducted as follows: each thawed glycerol stock of candidate CBCAS transformants was stamped into a well of YEP+4% dextrose media. Samples were incubated at 30° C. in a shaking incubator for 2 days. A portion of each of the resulting cultures was stamped into a well of YEP+4% galactose+1 mM olivetolic acid (FIG. 1 Structure 6a). Samples were incubated at 20° C. and shaken in a shaking incubator for 4 days. Every 24 hours during those 4 days, 2% galactose and 1 mM olivetolic acid were spiked into the cultures. Sodium citrate buffer adjusted to pH 5.5 was added to each well at a final concentration of 100 mM. Samples were incubated at 20° C. and shaken in a shaking incubator for 2 days. A portion of each of the resulting production cultures was stamped into a well of phosphate buffered saline (PBS). Optical measurements were taken on a plate reader, with absorbance measured at 600 nm and fluorescence at 528 nm with 485 nm excitation. Samples were incubated at 30° C. in a shaking incubator for 2 days. 100% methanol was stamped into the production cultures in half-height deepwell plates. Plates were heat sealed and frozen. Samples were then thawed for 30 min and spun down at 4° C. A portion of the supernatant was stamped into half-area 96 well plates. CBCA, THCA, and CBDA production in the samples was quantified via liquid chromatography-mass spectrometry (LC-MS).
(§2) To determine whether engineering of the A. niger CBCAS identified in Example 1 (corresponding to SEQ ID NO: 29 (with signal peptides); SEQ ID NO: 27 (without signal peptides and including an N-terminal methionine (UniProt accession No. A0A254UC34)); or SEQ ID NO: 25 (without signal peptides and without the N-terminal methionine)), could alter CBCAS substrate specificity, product specificity and/or amounts of products produced, point mutations were generated in A. niger CBCAS and the mutant versions of the protein were expressed in S. cerevisiae. A library containing 1047 A. niger CBCAS mutants was generated and screened. As in Example 1, each CBCAS mutant in the library, as well as the enzymes expressed by positive control strains, included an N-terminal MFalpha2 signal peptide (SEQ ID NO: 16) (with a methionine residue added at the N-terminus of the MFalpha2 signal peptide) and a C-terminal HDEL signal peptide (SEQ ID NO: 17).
Production of compounds of Formulae (9), (10), and/or (11), including compounds of Formulae (9a), (10a), and/or (11a) by strains expressing the mutated versions of A. niger CBCAS was quantified and compared to the production of the same compounds by a strain expressing wild-type A. niger CBCAS, a strain expressing a C. sativa THCAS, and a strain expressing a C. sativa CBDAS. The strains were screened using the same assay described in Example 1. Production of CBCA, THCA, and/or CBDA in the samples was quantified via LC-MS.
(§3) Of the original 1047 library members, 55 strains were elevated to a secondary screen to verify CBCA production. The experimental protocol for the secondary screen was identical to the primary screen, except that additional biological replicates were included per strain, and replicate production cultures for each strain were separately fed 1 mM boluses of olivetolic acid or 1 mM boluses of divaric acid. All strains were screened in quadruplicate.

| Molecule | average CBCA titer compared with the A. niger positive control |
| --- | --- |
| B1 | higher |
| B2 | higher |
| B3 | higher |
| B4 | higher |
| B5 | higher |
| B6 | higher |
| B7 | higher |
| B8 | higher |
| B9 | higher |
| B10 | higher |
| B11 | higher |

Same assay, conditions: secondary screen, olivetolic acid (Table 8)

| Molecule | Mean CBCA [µg/L] | Mean CBDA [µg/L] | Mean THCA [µg/L] |
| --- | --- | --- | --- |
| B1 | 64502.70 | 10538.52 | 2739.24 |
| B2 | 44305.26 | 7187.94 | 2369.76 |
| B3 | 58061.40 | 11245.27 | 3389.10 |
| B4 | 44204.43 | 9698.33 | 2648.36 |
| B5 | 41094.07 | 9826.17 | 2184.77 |
| B6 | 49195.03 | 9456.09 | 2882.16 |
| B7 | 53771.53 | 10699.35 | 2873.74 |
| B8 | 32311.22 | 6827.61 | 2172.74 |
| B9 | 43506.37 | 9126.46 | 2579.57 |
| B10 | 32213.25 | 8392.06 | 1856.57 |
| B11 | 41981.73 | 9985.90 | 2186.01 |

Same assay, conditions: share of terminal cannabinoid product profile

| Molecule | % CBCA [%] | % CBDA [%] | % THCA [%] |
| --- | --- | --- | --- |
| B1 | 82.93 | 13.55 | 3.52 |
| B2 | 82.26 | 13.34 | 4.40 |
| B3 | 79.87 | 15.47 | 4.66 |
| B4 | 78.17 | 17.15 | 4.68 |
| B5 | 77.38 | 18.50 | 4.11 |
| B6 | 79.95 | 15.37 | 4.68 |
| B7 | 79.85 | 15.89 | 4.27 |
| B8 | 78.21 | 16.53 | 5.26 |
| B9 | 78.80 | 16.53 | 4.67 |
| B10 | 75.86 | 19.76 | 4.37 |
| B11 | 77.52 | 18.44 | 4.04 |

What follows are molecules tested on CBCVA, THCVA, and CBDVA production (assay: In vivo TS activity assay, Example 2 protein engineering of A. niger CBCAS, cultures fed divaric acid). Conditions: S. cerevisiae strains expressing A. niger CBCAS mutants, secondary screen, fed divaric acid.
Format: cell-based, S. cerevisiae
Description: as §1, §2, §3

| Molecule | Mean CBCVA [µg/L] | Mean CBDVA [µg/L] | Mean THCVA [µg/L] |
| --- | --- | --- | --- |
| B1 | 3226.77 | 0.00 | 1646.54 |
| B2 | 3752.20 | 0.00 | 2162.61 |
| B3 | 4972.60 | 0.00 | 2989.22 |
| B4 | 3668.51 | 0.00 | 1721.38 |
| B5 | 4314.23 | 0.00 | 2144.09 |
| B6 | 4751.98 | 0.00 | 2061.14 |
| B7 | 4271.01 | 0.00 | 2136.23 |
| B8 | 1775.08 | 0.00 | 1101.76 |
| B9 | 3069.69 | 0.00 | 1647.98 |
| B10 | 3685.70 | 0.00 | 1839.38 |
| B11 | 3644.48 | 0.00 | 1740.51 |

Same assay, conditions: secondary screen

| Molecule | average CBCVA titer compared with the A. niger positive control |
| --- | --- |
| B2 | higher |
| B3 | higher |
| B4 | higher |
| B5 | higher |
| B6 | higher |
| B7 | higher |
| B10 | higher |
| B11 | higher |

Same assay, conditions: share of terminal cannabinoid product profile, fed divaric acid

| Molecule | % CBCVA [%] | % CBDVA [%] | % THCVA [%] |
| --- | --- | --- | --- |
| B1 | 66.21 | 0.00 | 33.79 |
| B2 | 63.44 | 0.00 | 36.56 |
| B3 | 62.46 | 0.00 | 37.54 |
| B4 | 68.06 | 0.00 | 31.94 |
| B5 | 66.80 | 0.00 | 33.20 |
| B6 | 69.75 | 0.00 | 30.25 |
| B7 | 66.66 | 0.00 | 33.34 |
| B8 | 61.70 | 0.00 | 38.30 |
| B9 | 65.07 | 0.00 | 34.93 |
| B10 | 66.71 | 0.00 | 33.29 |
| B11 | 67.68 | 0.00 | 32.32 |

— US20230137139A1, “BIOSYNTHESIS OF CANNABINOIDS AND C[…]” (priority 2020, published 2023)
